Measurements from US20080247955A1.

Target: Triggering receptor expressed on myeloid cell-1 (TREM-1), human (human) (UniProt Q9NP99)
Experiment: cell-based or functional assay

UniProt Q9NP99, sequence (Q9NP99 21-234): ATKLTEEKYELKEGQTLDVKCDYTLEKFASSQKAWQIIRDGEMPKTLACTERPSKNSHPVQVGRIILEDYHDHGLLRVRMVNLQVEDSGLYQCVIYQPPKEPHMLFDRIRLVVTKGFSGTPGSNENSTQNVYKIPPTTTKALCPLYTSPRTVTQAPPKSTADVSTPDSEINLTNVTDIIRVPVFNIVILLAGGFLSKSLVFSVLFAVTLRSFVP

anti-hTREM-1 antibody (MAB1278, R&D Systems)
CSF2 (GM-CSF) mRNA induction (microarray, human monocytes): 9.6 fold
INHBA transcript fold change (microarray, human monocytes), confirmed at protein level by ELISA: 96.7 fold
M-CSF transcript fold change (microarray, human monocytes), confirmed at protein level by ELISA: 22 fold
SPP1 transcript fold change (microarray, human monocytes, 2 hours, α-TREM-1 against control antibody): 28 fold
